{"source": "patent US9353390B2", "about": "“Genetically engineered microbes and methods for producing 4-hydroxycoumarin” (University of Georgia Research Foundation, Inc., priority 2013, dated 2016)", "molecules": {"B1": {"name": "MenF, isochorismate synthase from E. coli MG1655 (purified, N-terminal His tag) (Escherichia coli K-12) (protein)", "chain": "MQSLTTALENLLRHLSQEIPATPGIRVIDIPFPLKDAFDALSWLASQQTYPQFYWQQRNGDEEAVVLGAITRFTSLDQAQRFLRQHPEHADLRIWGLNAFDPSQGNLLLPRLEWRRCGGKATLRLTLFSESSLQHDAIQAKEFIATLVSIKPLPGLHLTTTREQHWPDKTGWTQLIELATKTIAEGELDKVVLARATDLHFASPVNAAAMMAASRRLNLNCYHFYMAFDGENAFLGSSPERLWRRRDKALRTEALAGTVANNPDDKQAQQLGEWLMADDKNQRENMLVVEDICQRLQADTQTLDVLPPQVLRLRKVQHLRRCIWTSLNKADDVICLHQLQPTAAVAGLPRDLARQFIARHEPFTREWYAGSAGYLSLQQSEFCVSLRSAKISGNVVRLYAGAGIVRGSDPEQEWQEIDNKAAGLRTLLQME"}, "B2": {"name": "EntC, isochorismate synthase from E. coli MG1655 (purified, N-terminal His tag) (Escherichia coli K-12) (protein)", "chain": "MDTSLAEEVQQTMATLAPNRFFFMSPYRSFTTSGCFARFDEPAVNGDSPDSPFQQKLAALFADAKAQGIKNPVMVGAIPFDPRQPSSLYIPESWQSFSRQEKQASARRFTRSQSLNVVERQAIPEQTTFEQMVARAAALTATPQVDKVVLSRLIDITTDAAIDSGVLLERLIAQNPVSYNFHVPLADGGVLLGASPELLLRKDGERFSSIPLAGSARRQPDEVLDREAGNRLLASEKDRHEHELVTQAMKEVLRERSSELHVPSSPQLITTPTLWHLATPFEGKANSQENALTLACLLHPTPALSGFPHQAATQVIAELEPFDRELFGGIVGWCDSEGNGEWVVTIRCAKLRENQVRLFAGAGIVPASSPLGEWRETGVKLSTMLNVFGLH"}, "B3": {"name": "BIS3: Biphenyl synthase from Sorbus aucuparia, 4HC-forming enzyme (protein, UniProt D2DRC5 1-388, looked up)", "4-hydroxycoumarin synthase 2": "MAPVVKNEPQHAKILAIGTANPPNVFHQKDYPDFLFRVTKNEHRTDLREKFDRICEKSRTKKRYLHLTEEMLKANPNIYTYGAPSLNVRQDICNIEVPKLGQEASLKAIKEWGQPISKITHLIFCTASCVDMPGCDFQLIKLLGLDPSVTRTMIYEAGCYAGATVLRMAKDFAENNKGARVLVVCAEITTVFFHGLTDTHLDILVGQALFADGASAVIVGANPEPEIERPLFEIVACRQTILPNSEHGVVANIREMGFNYYLSGDVPKFVGGNVVDFMTKTFEKVDGKNKDWNSLFFSVHPGGPAIVDQVEEKLGLKEGKLRATRHVLSEYGNMGAPTVHFILDEMRNKSIEEGKTTTGEGLEWGVVIGIGPGLTVETAVLRSEFITY"}}, "key": {"[1]": {"target": "T1, PchA, isochorismate synthase from Pseudomonas aeruginosa PAO1 (purified, N-terminal His tag) (Pseudomonas aeruginosa, UniProt Q51508)", "T1 construct": "coupled with PaPchB", "T1 sequence (Q51508 whole entry)": "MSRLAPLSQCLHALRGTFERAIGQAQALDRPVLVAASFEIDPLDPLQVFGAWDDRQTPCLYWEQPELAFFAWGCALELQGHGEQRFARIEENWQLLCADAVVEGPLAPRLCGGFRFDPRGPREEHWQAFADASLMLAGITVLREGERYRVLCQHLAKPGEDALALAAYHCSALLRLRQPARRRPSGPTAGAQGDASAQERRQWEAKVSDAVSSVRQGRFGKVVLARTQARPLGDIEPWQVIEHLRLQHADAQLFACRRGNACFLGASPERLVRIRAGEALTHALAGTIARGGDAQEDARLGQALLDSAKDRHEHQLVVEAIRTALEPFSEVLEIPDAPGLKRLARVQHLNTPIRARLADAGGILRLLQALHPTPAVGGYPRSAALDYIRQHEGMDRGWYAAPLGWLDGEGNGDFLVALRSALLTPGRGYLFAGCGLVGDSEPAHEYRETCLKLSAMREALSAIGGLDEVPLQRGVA", "type": "biochemical", "conditions": "chorismic acid, pH 7.5, 30° C., mean ± s.d., n = 2", "description": "(§1) Kinetic parameters of EntC (A), MenF (B), and PchA (C). The Km and Vmax were generated with OriginPro8 through non-linear regression of the Michaelis-Menten equation. […] All data points are reported as mean±s.d. from two independent experiments (n=2). Error bars are defined as s.d.\n(§2) The kinetic parameters of the ICSs: EntC, MenF, and PchA were determined using coupled assays (Payne et al. Org. Biomol. Chem. 7, 2421-2429 (2009)). […] The reactions lasted 1 min for EntC, and 5 min for MenF and PchA, respectively, and then were terminated by acidification with 20 μL of HCl (20%). […] The kinetic parameters were estimated by using OriginPro8 through non-linear regression of the Michaelis-Menten equation."}, "[2]": {"target": "T2, EntC, isochorismate synthase from E. coli MG1655 (purified, N-terminal His tag) (Escherichia coli, UniProt P0AEJ2)", "T2 sequence (P0AEJ2 1-391)": "B2 chain", "test": "ICS coupled enzyme assay, EntC (with PaPchB, salicylate accumulation by HPLC)", "conditions": "chorismic acid, pH 7.5, 30° C., 0.1 μM enzyme, mean ± s.d., n = 2", "description": "as §1, §2"}, "[3]": {"target": "T3, MenF, isochorismate synthase from E. coli MG1655 (purified, N-terminal His tag) (Escherichia coli, UniProt P38051)", "T3 sequence (P38051 1-431)": "B1 chain", "test": "ICS coupled enzyme assay, MenF (with PaPchB, salicylate accumulation by HPLC)", "conditions": "chorismic acid, pH 7.5, 30° C., 0.1 μM enzyme, mean ± s.d., n = 2", "description": "as §1, §2"}, "[4]": {"system": "O=C(O)c1ccccc1O", "test": "purified protein, by the assay type", "conditions": "other: MdpB2, salicylate, pH 7.5, 30° C., mean ± s.d., n = 2", "description": "The Km and Vmax values were estimated with OriginPro8 through non-linear regression of the Michaelis-Menten equation. […] All data points are reported as mean±s.d. from two independent experiments (n=2). Error bars are defined as s.d.\nThe obtained transformants were pre-inoculated in Luria-Bertani (LB) medium containing 100 μg/ml of ampicillin and grown aerobically at 37° C. overnight. Next day, the pre-inoculums were transferred into 50 ml of fresh LB medium at a volume ratio of 1:100. The cultures were left to grow at 37° C. till the OD600 values reached 0.6-0.8 and then induced with 1.0 mM IPTG. Protein expression was conducted at 30° C. for another 5 h. […] The BCA kit (Pierce Chemicals) was used to estimate protein concentrations. The SCL enzyme assays were performed according to the method described by Ishiyama et al. with modifications (Ishiyama et al. Appl. Environ. Microbiol. 70, 1297-1306 (2004))."}, "[5]": {"substrate": "C=C(O[C@@H]1C=C(C(=O)O)C=C[C@H]1O)C(=O)O", "test": "purified protein, by the assay type", "conditions": "chorismic acid, pH 7.5, 30° C., mean ± s.d., n = 2", "description": "as §1, §2"}, "[6]": {"system": "conversion of salicylate to 4HC", "test": "In vitro complementation assay, salicylate to 4HC in crude extract of E. coli/pZE-EPBS", "conditions": "purified enzyme supplemented into crude extract with required cofactors; crude extract alone 0.18 mg/L/h", "description": "The E. coli strain carrying the plasmid pZE-EPBS was pre-inoculated into 3 ml LB liquid medium containing 100 μg/ml of ampicillin and grown at 37° C. overnight with shaking at 300 rpm. In the following day, 1 ml of the preinoculum was added to 50 ml of fresh M9Y medium. The culture was left to grow at 37° C. till the OD600 value reached around 0.6 and then induced with 0.5 mM IPTG. The expression of the pathway enzymes was conducted at 30° C. for another 5 hours. The cells were harvested and re-suspended in 2 ml of Tris-HCl buffer (100 mM, pH=7.5), and then lysed by French Press. The soluble fraction was collected by ultra-centrifugation and used as the crude enzyme extract for the complementation assay. […] After 30 min reaction, 100 μl of malonyl-CoA (2 mM) and 50 μl of crude extract with/without purified BIS3 (20 μl) were supplemented into the reaction system. The reactions were finally terminated in another 0.5-2 h by acidification."}}, "note": "Values joined by “and” are separate entries in the source; they are usually repeats but may differ in a detail not shown here. Equal values may be shown once."}
{"molecule": "C=C(O[C@@H]1C=C(C(=O)O)C=C[C@H]1O)C(=O)O", "note": "[chorismic acid]", "values": [{"measurement": "kcat", "setting": "[1]; 0.1 μM enzyme", "value": "0.20 S^−1 and 0.20 ± 0.01 S^−1"}, {"measurement": "Km", "setting": "[1]", "value": "3.69 ± 0.53", "unit": "µM"}, {"measurement": "kcat", "setting": "[2]", "value": "2.12 S^−1 and 2.12 ± 0.07 S^−1"}, {"measurement": "kcat", "setting": "[3]", "value": "0.13 S^−1 and 0.13 ± 0.01 S^−1"}]}
{"molecule": "MdpB2, salicylate:CoA ligase from Actinomadura madurae ATCC39144 (purified, N-terminal His tag) (Actinomadura madurae)", "values": [{"measurement": "Km", "setting": "[4]", "value": "8.53 ± 0.94", "unit": "µM"}, {"measurement": "kcat", "setting": "[4]", "value": "1.18 ± 0.03", "unit": "s⁻¹"}, {"measurement": "kcat/Km", "setting": "[4]", "value": 138000, "unit": "M⁻¹ s⁻¹"}]}
{"molecule": "B1", "values": [{"measurement": "Km", "setting": "[5]; other: MenF", "value": "6.75 ± 2.99", "unit": "µM"}]}
{"molecule": "B2", "values": [{"measurement": "Km", "setting": "[5]; other: EntC", "value": "11.93 ± 1.37", "unit": "µM"}]}
{"molecule": "B3", "values": [{"measurement": "rate of conversion of salicylate to 4HC", "setting": "[6]", "value": 7.83, "unit": "mg/L/h"}]}
